This is an account of results in US20220306751A1 (MYTHIC THERAPEUTICS, published 2022).

T1: CD123 Protein, His Tag, Acro Biosciences Cat. No. ILA-H52H6 (Homo sapiens (Human), UniProt P26951 19-305)
T1 construct: Bought protein; not shown: His tag
T1 sequence: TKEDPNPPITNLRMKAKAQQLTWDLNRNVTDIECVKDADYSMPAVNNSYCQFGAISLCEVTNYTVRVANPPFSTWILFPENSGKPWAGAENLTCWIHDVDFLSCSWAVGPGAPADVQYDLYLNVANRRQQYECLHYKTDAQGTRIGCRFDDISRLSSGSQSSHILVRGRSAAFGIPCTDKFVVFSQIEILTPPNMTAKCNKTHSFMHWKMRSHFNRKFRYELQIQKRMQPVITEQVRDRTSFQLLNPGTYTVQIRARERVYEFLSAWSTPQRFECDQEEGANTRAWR

B1: MYT1414 (antibody, V domains shown)
VH: QVQLVQSGAEVKKPGASVKMSCKASHYTFTDYYMKWVKQAPGQGLEWIGDIIPSNGATFYNQKFKGKATLTVDRSISTAYMHLNRLRSDDTAVYYCTRSHLLRASWFAYWGQGTLVTVSS
VL: DFVMTQSPDSLAVSLGERATINCKSSQSLLNSGNQKNYLTWYLQKPGQPPKLLIYWASTRESGVPDRFSGSGSGTDFTLTISSLQAEDVAVYYCQNDYSYPYTFGQGTKLEIK
notes: IgG
B2: MYT1416 (antibody, V domains shown)
VH: B1 VH with H26G, T28H
VL: B1 VL
notes: IgG
B3: MYT1419 (antibody, V domains shown)
VH: B1 VH with H26G, D31H
VL: B1 VL
notes: IgG
B4: MYT1420 (antibody, V domains shown)
VH: B1 VH with H26G, Y32H
VL: B1 VL
notes: IgG
B5: MYT1415 (antibody, V domains shown)
VH: B1 VH with H26G, Y27H
VL: B1 VL
notes: IgG
B6: MYT1418 (antibody, V domains shown)
VH: B1 VH with H26G, T30H
VL: B1 VL
notes: IgG
B7: MYT1421 (antibody, V domains shown)
VH: B1 VH with H26G, Y33H
VL: B1 VL
notes: IgG
B8: MYT2774 (antibody, V domains shown)
VH: QVQLVQSGAEVKKPGASVKVSCKASGYIFTSSIMHWVRQAPGQGLEWIGYIKPYNDGTKYNEKFKGRATLTSDRSTSTAYMELSSLRSEDTAVYYCAREGGNDYYDTMDYWGQGTLVTVSS
VL: DIQMTQSPSSLSASVGDRVTITCRHSQDINSYLSWFQQKPGKAPKTLIYRVNRLVDGVPSRFSGSGSGNDYTLTISSLQPEDFATYYCLQYDAFPYTFGQGTKVEIK
notes: IgG
B9: MYT2776 (antibody, V domains shown)
VH: B8 VH
VL: B8 VL with H25A, Q27H
notes: IgG
B10: MYT2786 (antibody, V domains shown)
VH: B8 VH
VL: B8 VL with H25A, N52H
notes: IgG
B11: MYT2782 (antibody, V domains shown)
VH: B8 VH
VL: B8 VL with H25A, L33H
notes: IgG
B12: MYT2781 (antibody, V domains shown)
VH: B8 VH
VL: B8 VL with H25A, Y32H
notes: IgG
B13: MYT2777 (antibody, V domains shown)
VH: B8 VH
VL: B8 VL with H25A, D28H
notes: IgG
B14: MYT2788 (antibody, V domains shown)
VH: B8 VH
VL: B8 VL with H25A, L54H
notes: IgG
B15: MYT2798 (antibody, V domains shown)
VH: B8 VH
VL: B8 VL with H25A, Y96H
notes: IgG
B16: MYT2789 (antibody, V domains shown)
VH: B8 VH
VL: B8 VL with H25A, V55H
notes: IgG
B17: MYT2796 (antibody, V domains shown)
VH: B8 VH
VL: B8 VL with H25A, F94H
notes: IgG
B18: MYT2787 (antibody, V domains shown)
VH: B8 VH
VL: B8 VL with H25A, R53H
notes: IgG
B19: MYT2791 (antibody, V domains shown)
VH: B8 VH
VL: B8 VL with H25A, L89H
notes: IgG
B20: MYT2795 (antibody, V domains shown)
VH: B8 VH
VL: B8 VL with H25A, A93H
notes: IgG
B21: MYT2779 (antibody, V domains shown)
VH: B8 VH
VL: B8 VL with H25A, N30H
notes: IgG
B22: MYT2780 (antibody, V domains shown)
VH: B8 VH
VL: B8 VL with H25A, S31H
notes: IgG
B23: MYT2790 (antibody, V domains shown)
VH: B8 VH
VL: B8 VL with H25A, D56H
notes: IgG
B24: MYT2792 (antibody, V domains shown)
VH: B8 VH
VL: B8 VL with H25A, Q90H
notes: IgG
B25: MYT2785 (antibody, V domains shown)
VH: B8 VH
VL: B8 VL with H25A, V51H
notes: IgG
B26: MYT2778 (antibody, V domains shown)
VH: B8 VH
VL: B8 VL with H25A, I29H
notes: IgG
B27: MYT2775 (antibody, V domains shown)
VH: B8 VH
VL: B8 VL with H25A, S26H
notes: IgG
B28: MYT2797 (antibody, V domains shown)
VH: B8 VH
VL: B8 VL with H25A, P95H
notes: IgG
B29: MYT2784 (antibody, V domains shown)
VH: B8 VH
VL: B8 VL with H25A, R50H
notes: IgG
B30: MYT2799 (antibody, V domains shown)
VH: B8 VH
VL: B8 VL with H25A, T97H
notes: IgG
B31: MYT2794 (antibody, V domains shown)
VH: B8 VH
VL: B8 VL with H25A, D92H
notes: IgG
B32: MYT2793 (antibody, V domains shown)
VH: B8 VH
VL: B8 VL with H25A, Y91H
notes: IgG
B33: MYT2783 (antibody, V domains shown)
VH: B8 VH
VL: B8 VL with H25A, S34H
notes: IgG

Residue numbers refer to the chain shown, from its start.

This assay has as its target T1, CD123 Protein, His Tag, Acro …. Put plainly: BLI, IgG on anti-human Fc sensor, 50 nM CD123, pH 7.4 and pH 5.4. The source says:
We selected IMGN632 (Heavy chain SEQ ID NO: 1, Light chain SEQ ID NO: 2) as a CD123-binding monoclonal antibody for pH engineering via histidine scanning. Briefly, CDRs in the heavy chain were identified using the methods described by Kabat et al (Kabat et al. (1992) Sequences of Proteins of Immunological Interest, DIANE publishing) and IMGT (Lefranc M P (1999) “The IMGT unique numbering for Immunoglobulins, T cell receptors and Ig-like domains” The Immunologist 7, 132-136), and for each CDR, residues falling under either or both Kabat and IMGT CDR definitions were called as CDR residues. To generate pH-dependent sequence variants, individual amino acid residues within the heavy chain CDRs were systematically substituted with a histidine, one at a time (MYT1252-MYT1292). In cases where the starting CDR residue was a histidine, it was mutated to an alanine. Antibody variants with only one histidine or alanine mutation in a heavy chain CDR were generated by co-transfection of Expi293 cells with a) one heavy chain sequence variant, and b) the corresponding starting ABPC light chain using methods known to the art. After allowing for four days of protein expression, cell culture supernatants were collected, quantified by SDS-PAGE analysis (FIG. 1), and the pH dependence of the variant was evaluated using biolayer interferometry (BLI) on an Octet RED 384 instrument. For constructs MYT1252, MYT1254-MYT1287, and MYT1289-1292, 104, of cell culture supernatant was diluted into 1904, of 1× PBST pH 7.4. For MYT1253 and MYT1288 254, and 504, of cell culture supernatant was diluted into 1754, and 1504, respectively. […] The resulting diluted supernatants were then captured on an anti-human Fc sensor (Forte Bio). A baseline was established using 1× PBST (50 mM Potassium Phosphate Buffer+150 mM NaCl+0.05% Tween 20) pH 7.4, and the sensor was associated with 50 nM of CD123 (CD123 Protein, His Tag, Acro Biosciences Cat. No. ILA-H52H6, Lot No. 1741d-89CF1-KB) in 1×PBST pH 7.4 for 120 sec to generate an association curve. In the dissociation phase, the antibody-antigen complex on the sensor was exposed to 1× PBST pH 7.4 for 300-600 sec. Baseline, association, and dissociation were repeated using 1×PBST pH 5.4 throughout in a separate condition.
B1: the binding result was “binds”.
In the case of B2, the binding result is reported as “binds”.
Under B3 stands “binds”.
For the molecule B4, the binding result is given as “binds”.
B5: the binding result is reported as “binds”.
On to B6, for which the binding result was “binds”.
Under B7 stands “binds”.
For B8, the binding result is “binds”.
In the case of B9, the binding result is reported as “binds”.
Take B10: the binding result is reported as “binds”.
Turning to B11, the binding result is recorded as “binds”.
For the molecule B12, the binding result is reported as “binds”.
In the case of B13, the binding result was “binds”.
Under B14 stands “binds”; under B15, “binds”.
For the molecule B16, the binding result is recorded as “binds”.
As for B17, the binding result is on record as “binds”.
Turning to B18, the binding result is “binds”.
Regarding B19, the binding result is recorded as “binds”.
B20: the binding result was “binds”.
For the molecule B21, the binding result is reported as “binds”.
On to B22, for which the binding result was “binds”.
Under B23 stands “binds”; under B24, “binds”.
Under B25 stands “binds”; under B26, “binds”; under B27, “binds”.
Regarding B28, the binding result was “binds”.
Under B29 stands “binds”.
For B30, the binding result was “binds”.
In the case of B31, the binding result is given as “binds”.
For B32, the binding result is given as “binds”.
For the molecule B33, the binding result is “binds”.
